This passage reports stoichiometry N (SecA per SecY complex) results from PMC7164768.

The assay concerns the target Thermotoga maritima SecYEG complex, Se-Met derivatized (Thermotoga maritima) (UniProt Q9X1I9). The assay can be described thus: crystal structure.

Thermotoga maritima SecYEG complex, Se-Met derivatized (Thermotoga maritima), sequence (Q9X1I9 whole entry, chain 1 of 3): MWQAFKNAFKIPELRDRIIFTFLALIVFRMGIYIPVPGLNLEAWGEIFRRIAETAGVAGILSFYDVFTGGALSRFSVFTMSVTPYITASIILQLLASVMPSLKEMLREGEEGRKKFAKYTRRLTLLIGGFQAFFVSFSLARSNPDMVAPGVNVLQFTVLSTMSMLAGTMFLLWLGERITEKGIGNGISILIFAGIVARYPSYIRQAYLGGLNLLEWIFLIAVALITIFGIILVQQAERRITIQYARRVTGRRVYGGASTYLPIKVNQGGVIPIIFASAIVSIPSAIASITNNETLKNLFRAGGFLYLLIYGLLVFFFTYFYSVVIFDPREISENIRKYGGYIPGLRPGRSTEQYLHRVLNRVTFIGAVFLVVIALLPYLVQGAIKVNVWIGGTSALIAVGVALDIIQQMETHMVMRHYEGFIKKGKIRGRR
Thermotoga maritima SecYEG complex, Se-Met derivatized (Thermotoga maritima), sequence (P35874 whole entry, chain 2 of 3, further chain): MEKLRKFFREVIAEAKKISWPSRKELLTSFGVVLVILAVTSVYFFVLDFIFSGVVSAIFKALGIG
Thermotoga maritima SecYEG complex, Se-Met derivatized (Thermotoga maritima), sequence (Q9WYU9 whole entry, chain 3 of 3, further chain): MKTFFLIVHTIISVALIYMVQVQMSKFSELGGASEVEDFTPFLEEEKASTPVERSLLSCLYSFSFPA

As to “Thermotoga maritima SecA (from UniProt Q9X1R4 1-871) (enzyme)”, the stoichiometry N (SecA per SecY complex) was found to be 1.
